Results as given in patent publication US20110166062A1 (INDIANA UNIVERSITY RESEARCH AND TECHNOLOGY, published 2011).
Where no end group is shown, it is not given here. [ ]: non-standard residue; d: D form. The star is where a group is joined. PEG 40 kDa = PEG (40 kDa) covalently attached to Cys; Stearoyl = CCCCCCCCCCCCCCCCCC(=O)*; Palmitoyl = CCCCCCCCCCCCCCCC(=O)*; Myristoyl = CCCCCCCCCCCCCC(=O)*; Octanoyl = CCCCCCCC(=O)*; Aib = CC(C)(N)C(=O)O

B1: mt-257 (peptide)
peptide: Y[Aib]QGTFTSDYSIYLDKQAA[Aib]EFVCWLLAG-NH2
modifications: N-terminus assumed
SMILES: CC[C@H](C)[C@H](NC(=O)[C@H](CO)NC(=O)[C@H](Cc1ccc(O)cc1)NC(=O)[C@H](CC(=O)O)NC(=O)[C@H](CO)NC(=O)[C@@H](NC(=O)[C@H](Cc1ccccc1)NC(=O)[C@@H](NC(=O)CNC(=O)[C@H](CCC(N)=O)NC(=O)C(C)(C)NC(=O)[C@@H](N)Cc1ccc(O)cc1)[C@@H](C)O)[C@@H](C)O)C(=O)N[C@@H](Cc1ccc(O)cc1)C(=O)N[C@@H](CC(C)C)C(=O)N[C@@H](CC(=O)O)C(=O)N[C@@H](CCCCN)C(=O)N[C@@H](CCC(N)=O)C(=O)N[C@@H](C)C(=O)N[C@@H](C)C(=O)NC(C)(C)C(=O)N[C@@H](CCC(=O)O)C(=O)N[C@@H](Cc1ccccc1)C(=O)N[C@H](C(=O)N[C@@H](CS)C(=O)N[C@@H](Cc1c[nH]c2ccccc12)C(=O)N[C@@H](CC(C)C)C(=O)N[C@@H](CC(C)C)C(=O)N[C@@H](C)C(=O)NCC(N)=O)C(C)C
B2: mt-279 (peptide)
peptide: Y[Aib]QGTFTSDYSIYLDKQAA[Aib]EFVNWLLAGGPSSGAPPPSK(Stearoyl)-NH2
modifications: N-terminus assumed
SMILES: CCCCCCCCCCCCCCCCCC(=O)NCCCC[C@H](NC(=O)[C@H](CO)NC(=O)[C@@H]1CCCN1C(=O)[C@@H]1CCCN1C(=O)[C@@H]1CCCN1C(=O)[C@H](C)NC(=O)CNC(=O)[C@H](CO)NC(=O)[C@H](CO)NC(=O)[C@@H]1CCCN1C(=O)CNC(=O)CNC(=O)[C@H](C)NC(=O)[C@H](CC(C)C)NC(=O)[C@H](CC(C)C)NC(=O)[C@H](Cc1c[nH]c2ccccc12)NC(=O)[C@H](CC(N)=O)NC(=O)[C@@H](NC(=O)[C@H](Cc1ccccc1)NC(=O)[C@H](CCC(=O)O)NC(=O)C(C)(C)NC(=O)[C@H](C)NC(=O)[C@H](C)NC(=O)[C@H](CCC(N)=O)NC(=O)[C@H](CCCCN)NC(=O)[C@H](CC(=O)O)NC(=O)[C@H](CC(C)C)NC(=O)[C@H](Cc1ccc(O)cc1)NC(=O)[C@@H](NC(=O)[C@H](CO)NC(=O)[C@H](Cc1ccc(O)cc1)NC(=O)[C@H](CC(=O)O)NC(=O)[C@H](CO)NC(=O)[C@@H](NC(=O)[C@H](Cc1ccccc1)NC(=O)[C@@H](NC(=O)CNC(=O)[C@H](CCC(N)=O)NC(=O)C(C)(C)NC(=O)[C@@H](N)Cc1ccc(O)cc1)[C@@H](C)O)[C@@H](C)O)[C@@H](C)CC)C(C)C)C(N)=O
B3: mt-277 (peptide)
peptide: Y[Aib]QGTFTSDYSIYLDKQAA[Aib]EFVNWLLAGGPSSGAPPPSK(Myristoyl)-NH2
modifications: N-terminus assumed
SMILES: CCCCCCCCCCCCCC(=O)NCCCC[C@H](NC(=O)[C@H](CO)NC(=O)[C@@H]1CCCN1C(=O)[C@@H]1CCCN1C(=O)[C@@H]1CCCN1C(=O)[C@H](C)NC(=O)CNC(=O)[C@H](CO)NC(=O)[C@H](CO)NC(=O)[C@@H]1CCCN1C(=O)CNC(=O)CNC(=O)[C@H](C)NC(=O)[C@H](CC(C)C)NC(=O)[C@H](CC(C)C)NC(=O)[C@H](Cc1c[nH]c2ccccc12)NC(=O)[C@H](CC(N)=O)NC(=O)[C@@H](NC(=O)[C@H](Cc1ccccc1)NC(=O)[C@H](CCC(=O)O)NC(=O)C(C)(C)NC(=O)[C@H](C)NC(=O)[C@H](C)NC(=O)[C@H](CCC(N)=O)NC(=O)[C@H](CCCCN)NC(=O)[C@H](CC(=O)O)NC(=O)[C@H](CC(C)C)NC(=O)[C@H](Cc1ccc(O)cc1)NC(=O)[C@@H](NC(=O)[C@H](CO)NC(=O)[C@H](Cc1ccc(O)cc1)NC(=O)[C@H](CC(=O)O)NC(=O)[C@H](CO)NC(=O)[C@@H](NC(=O)[C@H](Cc1ccccc1)NC(=O)[C@@H](NC(=O)CNC(=O)[C@H](CCC(N)=O)NC(=O)C(C)(C)NC(=O)[C@@H](N)Cc1ccc(O)cc1)[C@@H](C)O)[C@@H](C)O)[C@@H](C)CC)C(C)C)C(N)=O
B4: mt-278 (peptide)
peptide: Y[Aib]QGTFTSDYSIYLDKQAA[Aib]EFVNWLLAGGPSSGAPPPSK(Palmitoyl)-NH2
modifications: N-terminus assumed
SMILES: CCCCCCCCCCCCCCCC(=O)NCCCC[C@H](NC(=O)[C@H](CO)NC(=O)[C@@H]1CCCN1C(=O)[C@@H]1CCCN1C(=O)[C@@H]1CCCN1C(=O)[C@H](C)NC(=O)CNC(=O)[C@H](CO)NC(=O)[C@H](CO)NC(=O)[C@@H]1CCCN1C(=O)CNC(=O)CNC(=O)[C@H](C)NC(=O)[C@H](CC(C)C)NC(=O)[C@H](CC(C)C)NC(=O)[C@H](Cc1c[nH]c2ccccc12)NC(=O)[C@H](CC(N)=O)NC(=O)[C@@H](NC(=O)[C@H](Cc1ccccc1)NC(=O)[C@H](CCC(=O)O)NC(=O)C(C)(C)NC(=O)[C@H](C)NC(=O)[C@H](C)NC(=O)[C@H](CCC(N)=O)NC(=O)[C@H](CCCCN)NC(=O)[C@H](CC(=O)O)NC(=O)[C@H](CC(C)C)NC(=O)[C@H](Cc1ccc(O)cc1)NC(=O)[C@@H](NC(=O)[C@H](CO)NC(=O)[C@H](Cc1ccc(O)cc1)NC(=O)[C@H](CC(=O)O)NC(=O)[C@H](CO)NC(=O)[C@@H](NC(=O)[C@H](Cc1ccccc1)NC(=O)[C@@H](NC(=O)CNC(=O)[C@H](CCC(N)=O)NC(=O)C(C)(C)NC(=O)[C@@H](N)Cc1ccc(O)cc1)[C@@H](C)O)[C@@H](C)O)[C@@H](C)CC)C(C)C)C(N)=O
B5: mt-285 (peptide)
peptide: Y[Aib]EGTFTSDKSIYLDKQAA[Aib]EFVNWLLAG-NH2
modifications: N-terminus assumed
SMILES: CC[C@H](C)[C@H](NC(=O)[C@H](CO)NC(=O)[C@H](CCCCN)NC(=O)[C@H](CC(=O)O)NC(=O)[C@H](CO)NC(=O)[C@@H](NC(=O)[C@H](Cc1ccccc1)NC(=O)[C@@H](NC(=O)CNC(=O)[C@H](CCC(=O)O)NC(=O)C(C)(C)NC(=O)[C@@H](N)Cc1ccc(O)cc1)[C@@H](C)O)[C@@H](C)O)C(=O)N[C@@H](Cc1ccc(O)cc1)C(=O)N[C@@H](CC(C)C)C(=O)N[C@@H](CC(=O)O)C(=O)N[C@@H](CCCCN)C(=O)N[C@@H](CCC(N)=O)C(=O)N[C@@H](C)C(=O)N[C@@H](C)C(=O)NC(C)(C)C(=O)N[C@@H](CCC(=O)O)C(=O)N[C@@H](Cc1ccccc1)C(=O)N[C@H](C(=O)N[C@@H](CC(N)=O)C(=O)N[C@@H](Cc1c[nH]c2ccccc12)C(=O)N[C@@H](CC(C)C)C(=O)N[C@@H](CC(C)C)C(=O)N[C@@H](C)C(=O)NCC(N)=O)C(C)C
B6: mt-323 (peptide)
peptide: Y[Aib]QGTFTSDYSIYLDKQAA[Aib]EFVNWLLAGGPSSGAPPPSK(Octanoyl)-NH2
modifications: N-terminus assumed
SMILES: CCCCCCCC(=O)NCCCC[C@H](NC(=O)[C@H](CO)NC(=O)[C@@H]1CCCN1C(=O)[C@@H]1CCCN1C(=O)[C@@H]1CCCN1C(=O)[C@H](C)NC(=O)CNC(=O)[C@H](CO)NC(=O)[C@H](CO)NC(=O)[C@@H]1CCCN1C(=O)CNC(=O)CNC(=O)[C@H](C)NC(=O)[C@H](CC(C)C)NC(=O)[C@H](CC(C)C)NC(=O)[C@H](Cc1c[nH]c2ccccc12)NC(=O)[C@H](CC(N)=O)NC(=O)[C@@H](NC(=O)[C@H](Cc1ccccc1)NC(=O)[C@H](CCC(=O)O)NC(=O)C(C)(C)NC(=O)[C@H](C)NC(=O)[C@H](C)NC(=O)[C@H](CCC(N)=O)NC(=O)[C@H](CCCCN)NC(=O)[C@H](CC(=O)O)NC(=O)[C@H](CC(C)C)NC(=O)[C@H](Cc1ccc(O)cc1)NC(=O)[C@@H](NC(=O)[C@H](CO)NC(=O)[C@H](Cc1ccc(O)cc1)NC(=O)[C@H](CC(=O)O)NC(=O)[C@H](CO)NC(=O)[C@@H](NC(=O)[C@H](Cc1ccccc1)NC(=O)[C@@H](NC(=O)CNC(=O)[C@H](CCC(N)=O)NC(=O)C(C)(C)NC(=O)[C@@H](N)Cc1ccc(O)cc1)[C@@H](C)O)[C@@H](C)O)[C@@H](C)CC)C(C)C)C(N)=O

These binders were tested against glucagon receptor (UniProt P47871 26-477, limits assumed) (assay: cell-based or functional assay).
Sequence of glucagon receptor (P47871 26-477 limits assumed): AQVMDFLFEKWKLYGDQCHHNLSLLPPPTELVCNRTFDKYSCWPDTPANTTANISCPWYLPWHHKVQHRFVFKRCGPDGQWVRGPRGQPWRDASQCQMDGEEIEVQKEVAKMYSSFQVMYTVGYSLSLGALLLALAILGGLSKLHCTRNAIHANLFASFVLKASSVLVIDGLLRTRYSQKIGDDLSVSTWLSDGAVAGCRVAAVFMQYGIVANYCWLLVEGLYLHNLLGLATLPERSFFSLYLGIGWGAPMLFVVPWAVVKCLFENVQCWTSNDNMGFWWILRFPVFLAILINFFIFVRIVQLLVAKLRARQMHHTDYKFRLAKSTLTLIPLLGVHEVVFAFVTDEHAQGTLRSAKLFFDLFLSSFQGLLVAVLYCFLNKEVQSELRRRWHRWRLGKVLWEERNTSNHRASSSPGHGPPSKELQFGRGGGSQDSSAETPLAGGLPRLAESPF

| Binder | EC50 [nM] |
| --- | --- |
| Y[Aib]EGTFTSDYSIYLDKQAA[Aib]EFVNWLLAGGPSSGAPPPSC(PEG 40 kDa)-NH2 [mt-295] | 87.3 |
| B1 | 0.211 |
| Y[Aib]EGTFTSDK(Myristoyl)SIYLDKQAA[Aib]EFVCWLLAGGPSSGAPPPS-NH2 (also: C-terminal amidation listed at position 40 of 39-residue chain) [mt-337] | 106 |
| Y[Aib]EGTFTSDYSIYLDKQAA[Aib]EFVNWLLAGGPSSGAPPPSK-NH2 [mt-263] | 3.18 |
| Y[Aib]QGTFTSDYSIYLDKQAA[Aib]EFVC(PEG 40 kDa)WLLAG-NH2 [mt-281] | 0.282 |
| Y[Aib]EGTFTSDKSIYLDKQAA[Aib]EFVCWLLAGGPSSGAPPPS-NH2 (also: C-terminal amidation listed at position 40 of 39-residue chain) [mt-338] | 295 |
| Y[Aib]EGTFTSDYSIYLDKQAA[Aib]EFVNWLLAGGPSSGAPPPSC-NH2 [mt-256] | 58.9 |

These binders were tested against GLP-1 receptor (UniProt P43220 24-463, limits assumed) (assay: cell-based or functional assay).

| Binder | EC50 [nM] |
| --- | --- |
| B2 | 0.0046 |
| B3 | 0.0086 |
| B4 | 0.0042 |

These binders were tested against T1, GIP receptor (UniProt P48546 22-466) (assay: cell-based or functional assay).
T1 sequence (looked up): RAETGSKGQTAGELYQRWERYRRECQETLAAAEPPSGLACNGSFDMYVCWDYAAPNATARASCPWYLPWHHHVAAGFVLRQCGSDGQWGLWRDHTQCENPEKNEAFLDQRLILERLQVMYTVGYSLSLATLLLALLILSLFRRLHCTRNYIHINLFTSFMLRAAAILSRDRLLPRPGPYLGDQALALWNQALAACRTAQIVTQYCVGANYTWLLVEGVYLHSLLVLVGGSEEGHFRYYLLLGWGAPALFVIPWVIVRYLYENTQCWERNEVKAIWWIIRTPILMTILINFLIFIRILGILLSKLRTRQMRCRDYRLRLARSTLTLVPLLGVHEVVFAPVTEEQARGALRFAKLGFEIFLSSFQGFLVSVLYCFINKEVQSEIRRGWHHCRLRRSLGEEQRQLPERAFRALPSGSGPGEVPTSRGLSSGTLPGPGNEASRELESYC

| Binder | EC50 [nM] |
| --- | --- |
| B5 | 0.028 |
| B2 | 0.0045 |
| B3 | 0.0052 |
| Y[Aib]EGTFTSDK(Myristoyl)SIYLDKQAA[Aib]EFVCWLLAGGPSSGAPPPS-NH2 (also: C-terminal amidation listed at position 40 of 39-residue chain) [mt-337] | 0.008 |
| Y[Aib]EGTFTSDYSIYLDKQAA[Aib]EFVNWLLAGGPSSGAPPPSK-NH2 [mt-263] | 0.0031 |
| Y[Aib]EGTFTSDKSIYLDKQAA[Aib]EFVCWLLAGGPSSGAPPPS-NH2 (also: C-terminal amidation listed at position 40 of 39-residue chain) [mt-338] | 0.0234 |
| B4 | 0.0028 |
| B6 | 0.0084 |
